{"source": "patent US20100273710", "about": "(published 2010)", "key": {"MOP receptor": {"target": "MOP receptor (Homo sapiens, UniProt P35372)", "sequence (P35372 whole entry)": "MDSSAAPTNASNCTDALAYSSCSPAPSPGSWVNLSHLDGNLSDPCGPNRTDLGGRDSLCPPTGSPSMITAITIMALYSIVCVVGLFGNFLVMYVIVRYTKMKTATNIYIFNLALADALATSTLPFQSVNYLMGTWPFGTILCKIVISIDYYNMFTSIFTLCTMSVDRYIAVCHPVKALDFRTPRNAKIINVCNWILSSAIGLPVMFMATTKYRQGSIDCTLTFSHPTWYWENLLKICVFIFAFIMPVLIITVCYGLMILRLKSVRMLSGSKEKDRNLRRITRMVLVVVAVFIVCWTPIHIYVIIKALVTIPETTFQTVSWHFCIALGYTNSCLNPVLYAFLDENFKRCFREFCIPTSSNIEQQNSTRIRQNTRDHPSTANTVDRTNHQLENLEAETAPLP", "assay": "competition, [3H]-diprenorphine"}, "NOP receptor [1]": {"target": "T1, NOP receptor (Homo sapiens, UniProt P41146)", "T1 sequence (P41146 whole entry)": "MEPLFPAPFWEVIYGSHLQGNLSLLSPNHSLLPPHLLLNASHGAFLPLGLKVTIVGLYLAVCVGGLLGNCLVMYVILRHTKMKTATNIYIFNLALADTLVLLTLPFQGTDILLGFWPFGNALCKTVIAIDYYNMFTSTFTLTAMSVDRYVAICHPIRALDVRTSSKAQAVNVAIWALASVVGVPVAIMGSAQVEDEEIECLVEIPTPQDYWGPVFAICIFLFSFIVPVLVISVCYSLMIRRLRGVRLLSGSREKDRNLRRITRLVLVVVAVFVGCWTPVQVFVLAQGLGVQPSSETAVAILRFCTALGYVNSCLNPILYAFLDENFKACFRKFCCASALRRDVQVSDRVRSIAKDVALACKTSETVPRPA", "assay": "competition, [3H]N/OFQ"}, "DOP receptor": {"target": "T2, DOP receptor (Homo sapiens, UniProt P41143)", "T2 chain": "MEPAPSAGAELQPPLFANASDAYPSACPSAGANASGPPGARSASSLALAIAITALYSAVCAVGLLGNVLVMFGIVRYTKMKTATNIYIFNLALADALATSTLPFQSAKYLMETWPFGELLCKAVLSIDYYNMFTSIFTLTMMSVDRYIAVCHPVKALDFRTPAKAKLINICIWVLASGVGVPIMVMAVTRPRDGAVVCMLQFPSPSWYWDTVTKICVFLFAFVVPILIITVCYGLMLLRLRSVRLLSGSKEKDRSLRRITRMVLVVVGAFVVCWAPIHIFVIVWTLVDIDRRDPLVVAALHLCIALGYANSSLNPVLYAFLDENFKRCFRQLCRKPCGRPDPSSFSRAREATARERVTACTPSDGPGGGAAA", "assay": "competition, [3H]-diprenorphine"}, "NOP receptor [2]": {"target": "T1, NOP receptor", "assay": "competition, [3H]N/OFQ", "remark": "listed apart in the source"}}, "note": "Like-named read-outs stand apart in the source and are kept apart here."}
{"binder": "XGGFTGXRKSARKRKNQ ([Nphe1,Aib7,Arg14,Lys15]N/OFQ-NH2; X1 = Nphe, X7 = Aib, C-terminal amide)", "note": "[UFP-111]", "values": [{"measurement": "Ki", "setting": "MOP receptor", "value": "> 10000", "unit": "nM"}, {"measurement": "Ki", "setting": "NOP receptor [1]", "value": 17.8, "unit": "nM"}, {"measurement": "Ki", "setting": "DOP receptor", "value": "> 10000", "unit": "nM"}, {"measurement": "Ki", "setting": "NOP receptor [2]", "value": 0.178, "unit": "nM"}]}
